Source: US20200231681A1 (CHONG KUN DANG PHARMACEUTICAL, published 2020)

Experiments:
[1] = molecular target: T1, human IGF-I R (R&D systems, 391-GR-050) (human, UniProt P08069 31-932); assay: indirect ELISA, hu8C4 at 30.000 nM
Procedure: (§1) Each antigen was diluted in 0.05 M carbonate-bicarbonate (Sigma, C3041) buffer at a concentration of 1 μg/ml, after which the resulting antigen was added into each well of a 96-well plate (Corning, #2592), such that the resulting plate was coated at 4° C. overnight. The plate was washed once with TBS-T, after which TBS-T containing 4%—skim milk was added by 200 μl into each well of the resulting plate in order to inhibit a non-specific binding, such that the resulting plate was reacted at 37° C. for 1 hour. Then, the plate was washed once with TBS-T buffer, after which a primary antibody was sequentially diluted in TBS-T buffer containing 2%—skim milk from a highest concentration of 30 nM to 0.002 nM, such that the resulting antibody was added by 100 μk into each well, thus being reacted at 37° C. for 2 hours. After being washed three times with TBS-T buffer, an anti-human kappa light chains-peroxidase (Sigma, A7164) was diluted at a ratio of 1:5000 as a secondary antibody, after which the resulting antibody was added by 100 μl into each well, thus being reacted at 37° C. for 1 hour. Then, after being washed three times with TBS-T buffer, TMB solution (Sigma, T4444) was added by 100 μl into each well to carry out an color developing reaction, after which 2 N […] solution was added by 50 μl into each well to stop the reaction. An optical density was measured based on a value at a wavelength of 450 nm by using a microplate reader and a reference wavelength of 570 nm was used.

[2] = molecular target: T2, human MSP R/Ron (R&D systems, 1947-MS-050) (human, UniProt Q04912 25-571, limits assumed); assay: indirect ELISA, hu8C4 at 30.000 nM
Procedure: as §1

[3] = molecular target: T3, human PDGF Rβ Fc chimera (R&D systems, 385-PR_CF) (human, UniProt P09619 33-530); assay: indirect ELISA, hu8C4 at 30.000 nM
Procedure: as §1

[4] = molecular target: T1, human IGF-I R (R&D systems, 391-GR-050); assay: indirect ELISA, hu8C4 at 0.002 nM
Procedure: as §1

[5] = molecular target: T4, human VEGF R2 Fc chimera (R&D systems, 357-KD_CF) (human, UniProt P35968 20-764); assay: indirect ELISA, hu8C4 at 0.002 nM
T4 construct: also called VEGFR R2
Procedure: as §1

[6] = molecular target: T2, human MSP R/Ron (R&D systems, …); assay: indirect ELISA, hu8C4 at 0.002 nM
Procedure: as §1

[7] = molecular target: T3, human PDGF Rβ Fc chimera (R&D systems, …); assay: indirect ELISA, hu8C4 at 0.002 nM
Procedure: as §1

[8] = molecular target: T5, human c-Met Fc chimera (R&D systems, 358-MT_CF) (human, UniProt P08581 25-932); assay: indirect ELISA, hu8C4 at 0.002 nM
T5 construct: extracellular domain; also called human c-Met (R&D Systems, 358-MT)
Procedure: as §1

[9] = molecular target: T5, human c-Met Fc chimera (R&D systems, …); assay: indirect ELISA, hu8C4 at 0.048 nM
Procedure: as §1

[10] = molecular target: T1, human IGF-I R (R&D systems, 391-GR-050); assay: indirect ELISA, hu8C4 at 6.000 nM
Procedure: as §1

[11] = molecular target: T4, human VEGF R2 Fc chimera (R&D systems, …); assay: indirect ELISA, hu8C4 at 6.000 nM
Procedure: as §1

[12] = molecular target: T2, human MSP R/Ron (R&D systems, …); assay: indirect ELISA, hu8C4 at 6.000 nM
Procedure: as §1

[13] = molecular target: T3, human PDGF Rβ Fc chimera (R&D systems, …); assay: indirect ELISA, hu8C4 at 6.000 nM
Procedure: as §1

[14] = molecular target: T6, mouse EGFR (SiNo. Biological Inc, 51091-M08H) (mouse, UniProt Q01279 25-647); assay: ELISA, coated antigen 2 µg/ml
T6 construct: extracellular domain
Procedure: Particularly, mouse c-Met (SiNo. Biological Inc, 50622-M08H), cynomolgus monkey c-Met (SiNo. Biological Inc, 90304-CO8H), human c-Met (R&D Systems, 358-MT), mouse EGFR (SiNo. Biological Inc, 51091-M08H), cynomolgus monkey EGFR (SiNo. Biological, 90285-008B) and human EGFR (Abcam, 155639) antigens were all divided into a 96-well plate at a concentration of 2 μg/ml, after which the resulting plate was reacted at 4° C. overnight.
Color development was made by using TMB (Sigma, T4444) solution, wherein its value was measured at an optical density of 450 nm and its ELISA results are shown in FIG. 9.

[15] = molecular target: T1, human IGF-I R (R&D systems, 391-GR-050); assay: indirect ELISA, hu8C4 at 0.240 nM
Procedure: as §1

[16] = molecular target: T4, human VEGF R2 Fc chimera (R&D systems, …); assay: indirect ELISA, hu8C4 at 0.240 nM
Procedure: as §1

[17] = molecular target: T2, human MSP R/Ron (R&D systems, …); assay: indirect ELISA, hu8C4 at 0.240 nM
Procedure: as §1

[18] = molecular target: T3, human PDGF Rβ Fc chimera (R&D systems, …); assay: indirect ELISA, hu8C4 at 0.240 nM
Procedure: as §1

A450 nm-A570 nm [1]: 0 A450 nm-A570 nm
A450 nm-A570 nm [2]: 0 A450 nm-A570 nm
A450 nm-A570 nm [3]: 0.01 A450 nm-A570 nm
A450 nm-A570 nm [4]: 0 A450 nm-A570 nm
A450 nm-A570 nm [5]: -0.01 A450 nm-A570 nm
A450 nm-A570 nm [6]: 0 A450 nm-A570 nm
A450 nm-A570 nm [7]: -0.01 A450 nm-A570 nm
A450 nm-A570 nm [8]: 0.05 A450 nm-A570 nm
A450 nm-A570 nm [9]: 0.76 A450 nm-A570 nm
A450 nm-A570 nm [10]: 0 A450 nm-A570 nm
A450 nm-A570 nm [11]: -0.01 A450 nm-A570 nm
A450 nm-A570 nm [12]: 0 A450 nm-A570 nm
A450 nm-A570 nm [13]: -0.01 A450 nm-A570 nm
binding result [14]: no binding
A450 nm-A570 nm [15]: 0 A450 nm-A570 nm
A450 nm-A570 nm [16]: -0.02 A450 nm-A570 nm
A450 nm-A570 nm [17]: 0 A450 nm-A570 nm
A450 nm-A570 nm [18]: -0.01 A450 nm-A570 nm
B1: hu8C4 (IgG1 humanized antibody having a hinge region of SEQ ID NO: 38 in hu8C4-1) (antibody, V domains shown)
VH: EVQLVESGGGLVQPGGSLRLSCAASGYTFSDYYINWVRQAPGKGLEWIGEIFPGSGNTHFSARFKGRATLSADKSKNTAYLQMNSLRAEDTAVYYCAGGDYGFLYWGQGTLVTVSS
VL: DIQMTQSPSSLSASVGDRVTITCGASENIYGALNWYQQKPGKAPKLLIYGATNLADGVPSRFSGSGSGRDFTFTISSLQPEDIATYYCQNVLSSPYTFGQGTKVEIK
notes: light chain detected with anti-human kappa; also called anti-c-Met antibody hu8C4; hu8C4 monospecific antibody
